One molecule from patent publication US20090203610A1, “METHODS OF TREATING OBESITY OR DIABETES USING NT-4/5” (RINAT NEUROSCIENCE CORPORATION, priority 2004, published 2009) can be followed below.

Assay type in all cases: in vivo
The subject of experiment [1] is NONcNZO-10 polygenic obese and diabetic mice. The experiment in a line: Body weight and food intake in NONcNZO-10 mice (Example 3). The text has this:
Test animals: 19 male NONcNZO-10 polygenic obese and diabetic mice from Jackson Laboratory (See Leiter et al., Diabetes 53 (Suppl. 1): S4-S11, 2004) at 9 weeks of age weighing in the range of 28-35 g were used in this study.
Administration of NT-4/5: NT-4/5 was obtained from Genentech Inc.
The mice were divided into 3 groups of equivalent body weight and baseline glucose distribution (6-7 mice per group). […] Seven days before starting the treatment (day −7), blood samples were collected from the mice as described previously for the determination of baseline levels of blood glucose and triglyceride. After the treatment started, blood samples were collected weekly to determine glucose and triglyceride levels as described in previous examples. Body weight and food intake were monitored 5 days a week through out the entire study.

Experiment [2] relates to db/db mice. The experiment in a line: Triglyceride after two weeks daily s.c. NT-4/5 in db/db mice (Example 2). The following applies: day 14; 2, 5, 10 or 20 mg/kg s.c. daily for two weeks. The procedure: In another experiment, db/db mice were subcutaneously injected with vehicle (PBS) or NT-4/5 at 2 mg/kg, 5 mg/kg, 10 mg/kg, or 20 mg/kg daily for two weeks.
The test system of experiment [3] is db/db mice. As to the kind of experiment: Non-fasting serum glucose after single injection in db/db mice (Example 7). Particulars: after 4 days; single subcutaneous injection, 5 mg/kg. The method, then:
(§1) Test animals: 30 female db/db mice at 7 weeks of age weighing in the range of 27-34 g were used in this study.
(§2) Administration of NT-4/5 and pegylated NT-4/5: Wild type NT-4/5 was obtained from Genentech Inc. The mice were divided into 5 groups of equivalent body weight distribution (6 mice per group). Each group received on the first day (day 1) of the study one and the only dose of either vehicle, 5 mg/kg of NT-4/5 produced as described above, 5 mg/kg of 2PEG-NT4-G1S, or 5 mg/kg of 1PEG-NT4-G1S. 2PEG-NT4-G1S represents one PEG molecule was conjugated to each NT-4/5 monomer in a NT-4/5 dimer, and 1PEG-NT4-G1S represents one PEG molecule was conjugated to only one monomer of the NT-4/5 dimer. 2PEG-NT4-G1S and 1PEG-NT4-G1S were separated by ion exchange. Four days before starting the treatment (day −4), blood samples were collected from the mice as described previously for the determination of baseline levels of serum glucose. On day 4 after the treatment started, blood samples were collected again to determine serum glucose level. Body weight and food intake were monitored 5 days a week through out the entire study.

Experiment [4] deals with DIO mice. As to the kind of experiment: NT-4/5 versus BDNF on body weight and food intake of DIO mice (Example 10). The text has this:
Test animals: Mice with diet induced obesity (DIO) were used in this study. 22 male C57BL/6J mice were weaned at 4 weeks of age. Immediately after weaning they were put on 58% high fat diet (D12331i, Research Diet) through out the study. The DIO mice at 13 weeks of age weighing in the range of 28-40 g were used in this study.
Administration of NT-4/5 and BDNF: NT-4/5 was produced was produced as described in U.S. Pat. No. 6,184,360. The recombinant human BDNF was obtained from PeproTech Inc. (Rocky Hill, N.J.).
The mice were divided into 3 groups of equivalent body weight distribution (7-8 mice per group). Each group received 2 weekly intravenous doses of either vehicle, 2 mg/kg of NT-4/5 or 2 mg/kg of BDNF, respectively. Body weight and food intake were taken the day before treatment started (day 0) and followed subsequently on a daily basis.

The test system of experiment [5] is db/db mice. The experiment in a line: Body weight after single injection of NT-4/5 or pegylated NT-4/5 in db/db mice (Example 7, Table 21). The following applies: for Body weight expressed in percentage of baseline value: single 5 mg/kg dose on day 1. The method, then: as §1, §2
In a further experiment the test system is db/db female mice. The experiment in a line: Survival time in db/db mice (Example 12). The method, then: Db/db female mice maintained as described in Example 1 were divided into two groups. Group 1 (8 mice) were administered with vehicle (PBS). Group 2 (6 mice) was each administered with NT-4/5 at the doses of 20 mg/kg. Both the vehicle and NT-4/5 were administered subcutaneously once daily from day 1 to day 26, and were then followed up for survival. Mortality is defined by the body wasting below 60% of the starting body weight (i.e., from about 40 g down to about 24 g) or natural death, whichever happened first.

Experiment [6] has as its system DIO mice. As to the kind of experiment: Glucose, triglyceride and oral glucose tolerance in DIO mice (Example 5). Particulars: 2 and 10 mg/kg. The procedure:
Test animals: Mice with diet induced obesity (DIO) from Jackson Laboratory were used in this study. El-Haschimi, J. Clin. Invest. 105:1827-1832 (2000); Steppan, Nature 409:307-312 (2001). 23 male C57BL/6J mice were weaned at 4 weeks of age. Immediately after weaning they were put on about 58% high fat diet ([…], Research Diet) through out the study. The DIO mice at 13 weeks of age weighing in the range of 28-40 g were used in this study. Older mice at 22-24 weeks of age were also used.
Administration of NT-4/5: NT-4/5 used in this study was obtained from Genentech. The mice were divided into 3 groups of equivalent body weight and baseline blood glucose distribution (7-8 mice per group). Each group received from day 1 to day 5, from day 8 to day 12, from day 15 to 16 a daily subcutaneous dose of either vehicle, 2 mg/kg or 10 mg/kg of NT-4/5, respectively. Five days prior to the treatment started (day −5), a baseline blood samples were collected for measuring glucose and triglyceride. Subsequent to the treatment started (day 1), blood glucose and triglyceride were measured once a week. Body weight, food intake were monitored 5 days per week through out the entire study. From days 57-59, the DIO mice received a daily injection of NT-4/5 at 2 or 10 mg/kg respectively. They were fasted overnight (for 16 hours) before fasting glucose levels were measured and the oral glucose tolerance test was conducted with a load of 2 grams of glucose/kg of body weight.

[7] abbreviates: 2 or 10 mg/kg s.c. daily, dose dependent.
[8] abbreviates: weekly intravenous injection, 2 mg/kg.
Where [9] appears, read: DIO mice 12-16 weeks of age, not diabetic.
[10] abbreviates: DIO mice 22-24 weeks of age, overt diabetes.

B1: NT-4/5: mature human neurotrophin-4/5 (SEQ ID NO:1), obtained from Genentech or produced in E. coli (protein, listed as Homo sapiens)
chain: GVSETAPASRRGELAVCDAVSGWVTDRRTAVDLRGREVEVLGEVPAAGGSPLRQYFFETRCKADNAEEGGPGAGGGGCRGVDRRHWVSECKAKQSYVRALTADAQGRVGWRWIRIDTACVCTLLSRTGRA
On to B1, for which the entries for the “body weight” value (in experiment [1] (setting [7]); with DIO mice [4] (setting [8])) were “reduced body weight” and “reduced the body weight more effectively than that of BDNF”, respectively. The figures for the “food intake” value (in experiment [1] (setting [7]); in the experiment with DIO mice [4] (setting [8])) were “reduced” and “reduced the food intake more effectively than that of BDNF”, respectively. Besides, in experiment [1] (30 days after the treatment was terminated), the “rebound hyperphagia or rebound body weight gain” value is “No rebound hyperphagia or rebound body weight gain/overshoot was observed”. Moreover, the “triglyceride level as compared to vehicle” value with db/db mice [2] is recorded as “Significant reduction”. The “non-fasting serum glucose levels” value in the experiment with db/db mice [3] is listed as “showed a tendency to reduce”. Moreover, the “body weight on day 2” value in the experiment with DIO mice [4] (2 mg/kg i.v.) is listed as “reduced body weight significantly”. Besides, in the experiment on DIO mice [4] (2 mg/kg i.v.), the “food intake on day 2” value is recorded as “reduced food intake significantly”. Besides, the “Body weight expressed in percentage of baseline value” in the experiment with db/db mice [5] (Day 1) is given as 100.0 % of baseline; with db/db mice [5] (Day 2), 97.7 % of baseline; with db/db mice [5] (Day 3), 100.5 % of baseline; in the experiment on db/db mice [5] (Day 4), 101.7 % of baseline. Moreover, the “body weight growth” value with db/db mice [5] (single subcutaneous injection, 5 mg/kg, significantly) was “reduced the body weight growth”. Also, the “median length of survival” value in the experiment with db/db female mice (20 mg/kg s.c. daily day 1 to 26, n=6) amounted to 257 days. Further, in the experiment on db/db female mice (vehicle 192.5 days, not statistically significant (P=0.1331)), the “difference in median survival versus vehicle control” value was found to be 65 days. For the same molecule, the non-fasting glucose levels entry in the experiment with DIO mice [6] (setting [9]) was “did not affect”. The non-fasting triglyceride levels entry with DIO mice [6] (setting [9]) was “did not affect”. Besides, the fasting glucose level entry in the experiment on DIO mice [6] (setting [10]) is given as “significantly reduced fasting glucose level”. The glucose tolerance entry in the experiment on DIO mice [6] (setting [10]) is recorded as “improved glucose tolerance”.
